Legend:
[1] = biological target: Rabbit skeletal muscle actin filaments (rabbit) (UniProt P68135); test: high-speed atomic force microscopy; F-actin held on a mica-supported lipid bilayer (DPPC:DPTAP:biotin-cap-DPPE 89:10:1); actin-free XCAP1 or XCAP1-actin complex injected at 20-100 nM; 30 mM KCl, 10 mM imidazole-HCl pH 7.0, 1 mM MgCl2, 0.5 mM EGTA, 10 mM DTT, 10 % glycerol, 0.2 mM ATP; room temperature; dwell time of single particles
[2] = biological target: actin-free Xenopus cyclase-associated protein 1 (Xenopus laevis); test: as above

actin-free Xenopus cyclase-associated protein 1 (natural protein)
dwell time [1]: 0.2 s
dwell time (small particles of the XCAP1-actin complex preparation) [1]: 0.2 s
dwell time at the filament end [1]: 0.24 s
dwell time at the filament side [1]: 0.2 s
stoichiometry N [2]: 4
